Test results as given in PMC5858577.

Biological target: VEGF (human recombinant VEGF165 in the cell experiments) (human, UniProt P15692-4 27-191)
Assay: fluorescence recovery by displacement from gold nanorod

B1: gapmer aptamer probe (XNA)
DNA: CAATTGGGCCCGTCCGTATGGTGGGT
modifications: LNA monomers at both ends, DNA in the middle; exact positions only in Fig. 1b/Supplementary Table 1
  binding result: binds
